We go through 1 substance from patent publication US20160009798A1.

For experiment [1], the target named is human oncostatin M (OSM), in-house recombinant, mammalian-cell derived (human) (UniProt P13725). Description: SPR competition, human OSM captured on immobilized M71 (competitor), sample injected at 300 nM.
Experiment [2] concerns the target Cynomolgus monkey (Macaca fascicularis) oncostatin M, in-house recombinant (Cynomolgus monkey (Macaca fascicularis)). As to the kind of experiment: SPR (Biacore 3000), mAb captured by anti-Fc, OSM as analyte.
Experiment [3] addresses human oncostatin M (OSM), in-house recombinant, mammalian-cell derived (human) (UniProt P13725). The experiment is described as above.
The target is the same in experiment [4]. As to the kind of experiment: SPR competition, human OSM captured on immobilized M2 (competitor), sample injected at 300 nM.
For experiment [5] the target is unchanged. Description: SPR competition, human OSM captured on immobilized M64 (competitor), sample injected at 300 nM, second chip.
Experiment [6] shares this target. As to the kind of experiment: cell-based or functional assay.
Experiment [7] has the same target. Description: SPR competition, human OSM captured on immobilized M69 (competitor), sample injected at 300 nM.
The target is the same in experiment [8]. As to the kind of experiment: SPR competition, human OSM captured on immobilized M55 (competitor), sample injected at 300 nM, second chip.
For experiment [9] the target is unchanged. Description: SPR competition, human OSM captured on immobilized M54 (competitor), sample injected at 300 nM.
The target is the same in experiment [10]. Description: SPR competition, human OSM captured on immobilized M2 (competitor), sample injected at 300 nM, second chip.

Sequence of human oncostatin M (OSM), in-house recombinant, mammalian-cell derived (human) (P13725 26-221 limits assumed): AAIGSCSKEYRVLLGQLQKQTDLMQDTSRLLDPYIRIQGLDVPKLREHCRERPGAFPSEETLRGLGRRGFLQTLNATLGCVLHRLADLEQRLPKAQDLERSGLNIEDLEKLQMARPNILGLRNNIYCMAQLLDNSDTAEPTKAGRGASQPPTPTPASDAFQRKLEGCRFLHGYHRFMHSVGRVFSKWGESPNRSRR
Sequence of Cynomolgus monkey (Macaca fascicularis) oncostatin M, in-house recombinant (Cynomolgus monkey (Macaca fascicularis)) (P13725 other isoform, or with tags, fused parts or gaps limits assumed): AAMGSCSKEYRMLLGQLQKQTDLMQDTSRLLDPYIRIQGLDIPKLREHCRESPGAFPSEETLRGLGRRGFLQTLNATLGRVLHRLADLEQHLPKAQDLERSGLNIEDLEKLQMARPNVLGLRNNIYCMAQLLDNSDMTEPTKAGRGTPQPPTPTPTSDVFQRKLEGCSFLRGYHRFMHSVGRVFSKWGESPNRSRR

Turning to MAB295 (R&D Systems) (antibody), the Binding Level (RU) in [1] was 1990 RU; in experiment [4], -83 RU; in experiment [5], 1950 RU; in experiment [7] it was 2390 RU; in experiment [8] it was 2950 RU; in [9], 2900 RU. The Binding Level (RU) in experiment [10] was -80 RU. In addition, in [2], the KD ratio Cyno/Human was 10.7. The Kd in [2] is 19.8 nM; in experiment [3], 1.85 nM. Besides, the koff in experiment [2] is 0.0141 s⁻¹; in [3] it was 0.00217 s⁻¹. For the same substance, the kon in experiment [2] was 710000 M⁻¹ s⁻¹; in experiment [3], 1.18e+06 M⁻¹ s⁻¹. For the same substance, the EC50, pSTAT3 inhibition in A375 cells with 5 ng/ml hOSM in experiment [6] is 72.1 ng/ml.
